This is an account of results in patent US20170281716.

Data set [1] concerns the target T1, Full-length poly-histidine-tagged human IL-36β.
T1 chain: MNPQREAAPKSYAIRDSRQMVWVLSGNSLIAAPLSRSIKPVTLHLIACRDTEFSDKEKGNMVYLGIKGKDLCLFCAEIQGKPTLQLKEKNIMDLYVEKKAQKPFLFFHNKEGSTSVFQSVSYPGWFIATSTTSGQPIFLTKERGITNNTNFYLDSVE

Another data set addresses T2, endogenous IL-36γ.
T2 chain: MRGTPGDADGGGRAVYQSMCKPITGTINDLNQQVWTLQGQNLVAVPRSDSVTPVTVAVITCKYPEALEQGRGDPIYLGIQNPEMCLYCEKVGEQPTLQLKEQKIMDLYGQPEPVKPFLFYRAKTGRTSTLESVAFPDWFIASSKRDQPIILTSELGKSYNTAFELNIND

Data set [2] deals with T3, DEVD-modified IL-36β, full length unprocessed.
T3 sequence (Q9NZH7 whole entry, species assumed, looked up): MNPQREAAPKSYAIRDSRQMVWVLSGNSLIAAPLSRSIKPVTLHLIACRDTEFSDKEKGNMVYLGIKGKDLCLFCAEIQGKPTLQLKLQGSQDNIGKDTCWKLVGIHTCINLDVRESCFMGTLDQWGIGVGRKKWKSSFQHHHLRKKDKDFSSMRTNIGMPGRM

Data set [3] has as its target T4, DEVD-modified IL-36γ, full length.
T4 sequence (Q9NZH8 whole entry, species assumed, looked up): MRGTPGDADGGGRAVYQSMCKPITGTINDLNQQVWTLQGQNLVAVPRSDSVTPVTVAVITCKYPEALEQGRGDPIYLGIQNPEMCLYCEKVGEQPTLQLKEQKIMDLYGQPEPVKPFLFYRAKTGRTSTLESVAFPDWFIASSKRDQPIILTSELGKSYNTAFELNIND

The target of a further data set is T5, biotin-FLF-CMK.
T5 chain: FLF

B1: purified cathepsin K (protein)
chain: APDSVDYRKKGYVTPVKNQGQCGSCWAFSSVGALEGQLKKKTGKLLNLSPQNLVDCVSENDGCGGGYMTNAFQYVQKNRGIDSEDAYPYVGQEESCMYNPTGKAAKCRGYREIPEGNEKALKRAVARVGPVSVAIDASLTSFQFYSKGVYYDESCNSDNLNHAVLAVGYGIQKGNKHWIIKNSWGENWGNKGYILMARNKNNACGIANLASFPKM
Regarding B1, the “cleavage and activation of IL-36β” value in data set [1] is “cathepsin K, a protease predominantly expressed in osteoclasts, can cleave and activate IL-36β (beta) at the same residue as Cathepsin G (NPQR5 EAAP)”.

B2: Purified Neutrophil-derived Elastase (protein)
chain: IVGGRRARPHAWPFMVSLQLRGGHFCGATLIAPNFVMSAAHCVANVNVRAVRVVLGAHNLSRREPTRQVFAVQRIFENGYDPVNLLNDIVILQLNGSATINANVQVAQLPAQGRRLGNGVQCLAMGWGLLGRNRGIASVLQELNVTVVTSLCRRSNVCTLVRGRQAGVCFGDSGSPLVCNGLIHGIASFVRGGCASGLYPDAFAPVAQFVNWIDSIIQ
B2: in the data set with endogenous IL-36γ, the “proteolysis of endogenous IL-36γ from keratinocyte extracts and supernatants, immunoblot” value is recorded as “IL-36γ incubated with elastase resulted in robust IL-36γ proteolysis both intracellularly as well as extracellularly”; the “proteolysis of endogenous IL-36γ in psoriatic skin homogenates, immunoblot” value is “incubating these psoriatic homogenates with neutrophil elastase resulted in IL-36γ proteolysis”.

B3: Recombinant poly-histidine-tagged caspase-3 (protein)
chain: SGISLDNSYKMDYPEMGLCIIINNKNFHKSTGMTSRSGTDVDAANLRETFRNLKYEVRNKNDLTREEIVELMRDVSKEDHSKRSSFVCVLLSHGEEGIIFGTNGPVDLKKITNFFRGDRCRSLTGKPKLFIIQACRGTELDCGIETDSGVDDDMACHKIPVEADFLYAYSTAPGYYSWRNSKDGSWFIQSLCAMLKQYADKLEFMHILTRVNRKVATEFESFSFDATFHAKKQIPCIVSMLTKELYFYH
Take B3: the “proteolytic processing, immunoblot” value in data set [2] is “DEVD-modified IL-36β (IL-36b^DEVD) and DEVD-modified IL-36γ (IL-36g^DEVD) was readily processed by caspase-3”; in data set [3], “DEVD-modified IL-36β (IL-36b^DEVD) and DEVD-modified IL-36γ (IL-36g^DEVD) was readily processed by caspase-3”.

B4: Purified Neutrophil-derived Cathepsin G (protein)
chain: IIGGRESRPHSRPYMAYLQIQSPAGQSRCGGFLVREDFVLTAAHCWGSNINVTLGAHNIQRRENTQQHITARRAIRHPQYNQRTIQNDIMLLQLSRRVRRNRNVNPVALPRAQEGLRPGTLCTVAGWGRVSMRRGTDTLREVQLRVQRDRQCLRIFGSYDPRRQICVGDRRERKAAFKGDSGGPLLCNNVAHGIVSYGKSSGVPPEVFTRVSSFLPWIRTTMRS
With B4, in the data set with biotin-FLF-CMK, the “depletion of cathepsin G activity from degranulates with streptavidin agarose (FLF-sBzl hydrolysis; IL-36β bioassay)” value is “selective depletion of cathepsin G activity from PMA-treated neutrophil degranulates using biotin-FLF-CMK largely eliminated activation of IL-36b but not of IL-36g”.
